Experiment [1] deals with T1, interleukin-23 receptor (IL-23R) (human, UniProt Q5VWK5 24-629).
T1 sequence (looked up): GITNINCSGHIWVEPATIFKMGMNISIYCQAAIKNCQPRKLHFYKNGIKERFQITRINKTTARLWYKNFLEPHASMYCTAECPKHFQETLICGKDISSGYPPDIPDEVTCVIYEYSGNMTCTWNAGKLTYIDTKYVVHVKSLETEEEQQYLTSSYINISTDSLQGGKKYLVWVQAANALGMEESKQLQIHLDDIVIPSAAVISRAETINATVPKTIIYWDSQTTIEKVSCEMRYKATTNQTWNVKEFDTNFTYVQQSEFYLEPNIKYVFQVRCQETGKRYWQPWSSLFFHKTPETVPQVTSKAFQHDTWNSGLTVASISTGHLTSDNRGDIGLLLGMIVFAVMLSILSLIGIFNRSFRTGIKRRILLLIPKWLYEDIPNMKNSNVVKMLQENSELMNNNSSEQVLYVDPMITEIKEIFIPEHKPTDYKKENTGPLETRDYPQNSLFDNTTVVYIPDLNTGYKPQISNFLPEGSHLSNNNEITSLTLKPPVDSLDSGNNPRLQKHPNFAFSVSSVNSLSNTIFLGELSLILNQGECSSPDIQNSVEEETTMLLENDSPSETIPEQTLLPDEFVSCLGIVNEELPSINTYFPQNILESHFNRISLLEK
Briefly: cell-based or functional assay.

The target in experiment [2] is T1, interleukin-23 receptor (IL-23R). Briefly: cell-based or functional assay. This is another data set of the same source.

Starred links: 1 amine or outer side, 2 acyl side, 3 side chain; linkers in the order of their positions; H or OH if unused. Positions of bridges follow the written chain, without caps; N, C: chain ends. Non-standard residues stand in square brackets, D forms with d. Trp(7-Et) = 7-ethyl-tryptophan, CCc1cccc2c(C[C@H](N[*:1])C(=O)[*:2])c[nH]c12; Trp(7-Me) = Cc1cccc2c(C[C@H](N)C(=O)O)c[nH]c12; 2Nal = N[C@@H](Cc1ccc2ccccc2c1)C(=O)O; AEF = NCCOc1ccc(C[C@H](N)C(=O)O)cc1; Cit = NC(=O)NCCC[C@H](N)C(=O)O; αMeL = CC(C)C[C@](C)(N)C(=O)O; Pen = CC(C)(S)[C@H](N)C(=O)O; αMeK = C[C@](N)(CCCCN)C(=O)O; βAla = NCCC(=O)O

B1: Peptide of SEQ ID NO: 209 (peptide)
peptide: XNTXQXXXXKAX
modifications: Ac-[Pen]-NT-[W(7-Me)]-Q-[Pen]-Phe[4-(2-aminoethoxy)]-[2-Nal]-[a-MeLeu]-[Lys(Ac)]-[(D)Ala]-[bA]-NH2; Pen-Pen disulfide
For B1, in experiment [1], the “pStat3 HTRF IC50” value turned out to be 9.84 nM. Besides, the “NK Cell Assay IC50” value in experiment [2] worked out at 30.1 nM.

B2: Peptide of SEQ ID NO: 261 (peptide)
peptide: Ac-[Pen]NT[Trp(7-Me)][Cit][Pen][AEF][2Nal][αMeK]K(Ac)N[dS]-NH2
modifications: disulfide 1-6
SMILES: CC(=O)NCCCC[C@H](NC(=O)[C@](C)(CCCCN)NC(=O)[C@H](Cc1ccc2ccccc2c1)NC(=O)[C@H](Cc1ccc(OCCN)cc1)NC(=O)[C@H]1NC(=O)[C@H](CCCNC(N)=O)NC(=O)[C@H](Cc2c[nH]c3c(C)cccc23)NC(=O)[C@H]([C@@H](C)O)NC(=O)[C@H](CC(N)=O)NC(=O)[C@@H](NC(C)=O)C(C)(C)SSC1(C)C)C(=O)N[C@@H](CC(N)=O)C(=O)N[C@H](CO)C(N)=O
With B2, in experiment [1], the “pStat3 HTRF IC50” value was found to be 0.522 nM. Further, in experiment [2], the “NK Cell Assay IC50” value stood at 4.87 nM.

B3: Peptide of SEQ ID NO: 227 (peptide)
peptide: Ac-[Pen]NT[Trp(7-Me)][Cit][Pen][AEF][2Nal][αMeL]K(Ac)N[βAla]-NH2
modifications: disulfide 1-6
For B3, the “pStat3 HTRF IC50” value in experiment [1] was 0.702 nM. The “NK Cell Assay IC50” value in experiment [2] is 2.95 nM.

B4: Peptide of SEQ ID NO: 242 (peptide)
peptide: XNTXKXXXXKNX
modifications: Ac-[Pen]-NT-[W(7-Me)]-[Lys(Ac)]-[Pen]-Phe[4-(2-aminoethoxy)]-[2-Nal]-[a-MeLys]-[Lys(Ac)]-N-[bA]-NH2; Pen-Pen disulfide
As for B4, the “pStat3 HTRF IC50” value in experiment [1] came to 0.641 nM. Further, the “NK Cell Assay IC50” value in experiment [2] worked out at 2.37 nM.

B5: Peptide of SEQ ID NO: 284 (peptide)
peptide: Ac-[Pen]NT[Trp(7-Et)]K(Ac)[Pen][AEF][2Nal][αMeK]K(Ac)N[dL]-NH2
modifications: disulfide 1-6
SMILES: CCc1cccc2c(C[C@@H]3NC(=O)[C@H]([C@@H](C)O)NC(=O)[C@H](CC(N)=O)NC(=O)[C@@H](NC(C)=O)C(C)(C)SSC(C)(C)[C@@H](C(=O)N[C@@H](Cc4ccc(OCCN)cc4)C(=O)N[C@@H](Cc4ccc5ccccc5c4)C(=O)N[C@@](C)(CCCCN)C(=O)N[C@@H](CCCCNC(C)=O)C(=O)N[C@@H](CC(N)=O)C(=O)N[C@H](CC(C)C)C(N)=O)NC(=O)[C@H](CCCCNC(C)=O)NC3=O)c[nH]c12
On to B5, for which the “pStat3 HTRF IC50” value in experiment [1] came to 0.34 nM. In addition, the “NK Cell Assay IC50” value in experiment [2] came out at 3.16 nM.

B6: Peptide of SEQ ID NO: 226 (peptide)
peptide: XNTXQXXXXKXX
modifications: Ac-[Pen]-NT-[W(7-Me)]-Q-[Pen]-Phe[4-(2-aminoethoxy)]-[2-Nal]-[a-MeLeu]-[Lys(Ac)]-[bA]-[bA]-NH2; Pen-Pen disulfide
As for B6, in experiment [1], the “pStat3 HTRF IC50” value was 25.7 nM. Moreover, the “NK Cell Assay IC50” value in experiment [2] was determined as 9.55 nM.

B7: Peptide of SEQ ID NO: 218 (peptide)
peptide: XNTXQXXXXKTX
modifications: Ac-[Pen]-NT-[W(7-Me)]-Q-[Pen]-Phe[4-(2-aminoethoxy)]-[2-Nal]-[a-MeLeu]-[Lys(Ac)]-[(D)Thr]-[bA]-NH2; Pen-Pen disulfide
Turning to B7, in experiment [1], the “pStat3 HTRF IC50” value was 11 nM. For the same molecule, in experiment [2], the “NK Cell Assay IC50” value was found to be 50.2 nM.

B8: Peptide of SEQ ID NO: 235 (peptide)
peptide: Ac-[Pen]NT[Trp(7-Me)][αMeL][Pen][AEF][2Nal][αMeK]K(Ac)N[βAla]-NH2
modifications: disulfide 1-6
As to B8, the “pStat3 HTRF IC50” value in experiment [1] was determined as 3.21 nM. In experiment [2], the “NK Cell Assay IC50” value was 10.2 nM.

B9: Peptide of SEQ ID NO: 221 (peptide)
peptide: XNTXQXXXXKSX
modifications: Ac-[Pen]-NT-[W(7-Me)]-Q-[Pen]-Phe[4-(2-aminoethoxy)]-[2-Nal]-[a-MeLeu]-[Lys(Ac)]-S-[bA]-NH2; Pen-Pen disulfide
As to B9, in experiment [1], the “pStat3 HTRF IC50” value came out at 1.27 nM. In experiment [2], the “NK Cell Assay IC50” value was determined as 5.5 nM.

B10: Peptide of SEQ ID NO: 289 (peptide)
peptide: Ac-[Pen]NT[Trp(7-Me)]K(Ac)[Pen][2Nal][2Nal][αMeK]K(Ac)N[dL]-NH2
modifications: disulfide 1-6 (inferred)
Turning to B10, the “pStat3 HTRF IC50” value in experiment [1] is 1.91 nM. Further, the “NK Cell Assay IC50” value in experiment [2] amounted to 5.12 nM.

B11: Peptide of SEQ ID NO: 232 (peptide)
peptide: XNTXQXXXXKNX
modifications: Ac-[Pen]-NT-[W(1-Me)]-Q-[Pen]-Phe[4-(2-aminoethoxy)]-[2-Nal]-[a-MeLys]-[Lys(Ac)]-N-[bA]-NH2; Pen-Pen disulfide
With B11, the “pStat3 HTRF IC50” value in experiment [1] stood at 4.5 nM. The “NK Cell Assay IC50” value in experiment [2] turned out to be 9 nM.

B12: Peptide of SEQ ID NO: 225 (peptide)
peptide: XNTXQXXXXKXX
modifications: Ac-[Pen]-NT-[W(7-Me)]-Q-[Pen]-Phe[4-(2-aminoethoxy)]-[2-Nal]-[a-MeLeu]-[Lys(Ac)]-[a-MeLeu]-[bA]-NH2; Pen-Pen disulfide
On to B12, for which, in experiment [1], the “pStat3 HTRF IC50” value was 56.7 nM. In experiment [2], the “NK Cell Assay IC50” value was 114 nM.

B13: Peptide of SEQ ID NO: 236 (peptide)
peptide: XNTXQXXXXXNX
modifications: Ac-[Pen]-NT-[W(7-Me)]-Q-[Pen]-Phe[4-(2-aminoethoxy)]-[2-Nal]-[a-MeLys]-[Aib]-N-[bA]-NH2; Pen-Pen disulfide
B13: the “pStat3 HTRF IC50” value in experiment [1] was found to be 5.21 nM. In experiment [2], the “NK Cell Assay IC50” value was 5.82 nM.

B14: Peptide of SEQ ID NO: 238 (peptide)
peptide: Ac-[Pen][Cit]T[Trp(7-Me)]Q[Pen][AEF][2Nal][αMeK]K(Ac)N[βAla]-NH2
modifications: disulfide 1-6
SMILES: CC(=O)NCCCC[C@H](NC(=O)[C@](C)(CCCCN)NC(=O)[C@H](Cc1ccc2ccccc2c1)NC(=O)[C@H](Cc1ccc(OCCN)cc1)NC(=O)[C@H]1NC(=O)[C@H](CCC(N)=O)NC(=O)[C@H](Cc2c[nH]c3c(C)cccc23)NC(=O)[C@H]([C@@H](C)O)NC(=O)[C@H](CCCNC(N)=O)NC(=O)[C@@H](NC(C)=O)C(C)(C)SSC1(C)C)C(=O)N[C@@H](CC(N)=O)C(=O)NCCC(N)=O
With B14, the “pStat3 HTRF IC50” value in experiment [1] amounted to 1.06 nM. Moreover, the “NK Cell Assay IC50” value in experiment [2] was 2.99 nM.

These data come from patent publication US20220041658A1 (PROTAGONIST THERAPEUTICS, published 2022).
